We go through six molecules from paper PMC8813930, “The toposiomerase IIIalpha-RMI1-RMI2 complex orients human Bloom’s syndrome helicase for efficient disruption of D-loops”.

The target in data set [1] is T1, BLMFL (Homo sapiens, UniProt P54132 1-1417). The data set is described as follows: fluorescence anisotropy; no ATP; 5 mM MgCl2; 50 mM Tris-HCl pH 7.5, 50 mM NaCl, 1 mM DTT, 5 mM MgCl2, 50 µg/mL BSA, 25 °C; 10 nM labeled DNA in direct titrations. Conditions: protein: recombinant; label: 3'-fluorescein; single strand.
In data set [2] the target is T2, BLM-dWH (Homo sapiens, UniProt P54132 642-1077). The description is as above. The settings on record: protein: recombinant; label: 3'-fluorescein; single strand.
Data set [3] concerns the target T3, BLM-dH (Homo sapiens, UniProt P54132 642-1191). The data set is described as above. The settings on record: protein: recombinant; label: 3'-fluorescein; single strand.
Data set [4] has as its target T4, BLMCR (Homo sapiens, UniProt P54132 642-1290). The description is as above. The settings on record: protein: recombinant; label: 3'-fluorescein; single strand.
Data set [5] concerns the target T1, BLMFL. The data set is described as follows: competition fluorescence anisotropy; vs ss54-FLU; 5 mM MgCl2; 50 mM Tris-HCl pH 7.5, 50 mM NaCl, 1 mM DTT, 5 mM MgCl2, 50 µg/mL BSA, 25 °C; 10 nM labeled DNA in direct titrations. Conditions: protein: recombinant, label: 5'-Cy3 on D3. Background: Fluorescence polarisation rises when a labelled molecule tumbles more slowly, as on binding a larger partner.

In data set [6] the target is T2, BLM-dWH. The description is as above. The settings on record: protein: recombinant, label: 5'-Cy3 on D3.
In data set [7] the target is T3, BLM-dH. Described as above. The settings on record: protein: recombinant, label: 5'-Cy3 on D3.
Data set [8] concerns the target T4, BLMCR. The data set is described as above. Conditions: protein: recombinant, label: 5'-Cy3 on D3.
The target of data set [9] is TOPOIIIalpha (TRR complex);RMI1 (TRR complex);RMI2 (TRR complex) (Homo sapiens;Homo sapiens;Homo sapiens, UniProt Q13472;Q9H9A7;Q96E14 1-1001;1-625;1-147, ||). The data set is described as follows: fluorescence anisotropy; 5 mM MgCl2; 50 mM Tris-HCl pH 7.5, 50 mM NaCl, 1 mM DTT, 5 mM MgCl2, 50 µg/mL BSA, 25 °C; 10 nM labeled DNA in direct titrations. Conditions: protein: recombinant;recombinant;recombinant, tags: His;;, copies: 1;1;1, label: fluorescein on D3 (in place of Cy3).

Setting [10] is: three-stranded D-loop-like structure (D1+D2+D3), D3 3' part invades and pairs with D1.
Where [11] appears, read: four-stranded D-loop-like structure (D1+D2+D3+D4), D3 3' part pairs with D1, 5' part with D4.
Setting [12] is: 20 bp duplex, 3' overhang 21 nt on D3.

T2 sequence (P54132 642-1077): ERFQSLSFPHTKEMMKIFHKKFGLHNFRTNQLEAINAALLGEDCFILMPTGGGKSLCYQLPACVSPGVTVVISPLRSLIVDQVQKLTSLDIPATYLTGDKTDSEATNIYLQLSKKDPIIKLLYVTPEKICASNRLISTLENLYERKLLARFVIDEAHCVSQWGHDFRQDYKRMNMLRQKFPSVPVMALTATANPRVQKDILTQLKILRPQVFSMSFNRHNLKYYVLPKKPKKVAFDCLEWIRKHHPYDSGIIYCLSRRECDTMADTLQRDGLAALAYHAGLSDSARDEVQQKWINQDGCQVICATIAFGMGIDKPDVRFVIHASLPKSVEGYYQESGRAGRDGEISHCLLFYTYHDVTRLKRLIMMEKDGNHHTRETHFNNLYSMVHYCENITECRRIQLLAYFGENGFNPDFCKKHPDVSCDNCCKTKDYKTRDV
T1 sequence (P54132 whole entry): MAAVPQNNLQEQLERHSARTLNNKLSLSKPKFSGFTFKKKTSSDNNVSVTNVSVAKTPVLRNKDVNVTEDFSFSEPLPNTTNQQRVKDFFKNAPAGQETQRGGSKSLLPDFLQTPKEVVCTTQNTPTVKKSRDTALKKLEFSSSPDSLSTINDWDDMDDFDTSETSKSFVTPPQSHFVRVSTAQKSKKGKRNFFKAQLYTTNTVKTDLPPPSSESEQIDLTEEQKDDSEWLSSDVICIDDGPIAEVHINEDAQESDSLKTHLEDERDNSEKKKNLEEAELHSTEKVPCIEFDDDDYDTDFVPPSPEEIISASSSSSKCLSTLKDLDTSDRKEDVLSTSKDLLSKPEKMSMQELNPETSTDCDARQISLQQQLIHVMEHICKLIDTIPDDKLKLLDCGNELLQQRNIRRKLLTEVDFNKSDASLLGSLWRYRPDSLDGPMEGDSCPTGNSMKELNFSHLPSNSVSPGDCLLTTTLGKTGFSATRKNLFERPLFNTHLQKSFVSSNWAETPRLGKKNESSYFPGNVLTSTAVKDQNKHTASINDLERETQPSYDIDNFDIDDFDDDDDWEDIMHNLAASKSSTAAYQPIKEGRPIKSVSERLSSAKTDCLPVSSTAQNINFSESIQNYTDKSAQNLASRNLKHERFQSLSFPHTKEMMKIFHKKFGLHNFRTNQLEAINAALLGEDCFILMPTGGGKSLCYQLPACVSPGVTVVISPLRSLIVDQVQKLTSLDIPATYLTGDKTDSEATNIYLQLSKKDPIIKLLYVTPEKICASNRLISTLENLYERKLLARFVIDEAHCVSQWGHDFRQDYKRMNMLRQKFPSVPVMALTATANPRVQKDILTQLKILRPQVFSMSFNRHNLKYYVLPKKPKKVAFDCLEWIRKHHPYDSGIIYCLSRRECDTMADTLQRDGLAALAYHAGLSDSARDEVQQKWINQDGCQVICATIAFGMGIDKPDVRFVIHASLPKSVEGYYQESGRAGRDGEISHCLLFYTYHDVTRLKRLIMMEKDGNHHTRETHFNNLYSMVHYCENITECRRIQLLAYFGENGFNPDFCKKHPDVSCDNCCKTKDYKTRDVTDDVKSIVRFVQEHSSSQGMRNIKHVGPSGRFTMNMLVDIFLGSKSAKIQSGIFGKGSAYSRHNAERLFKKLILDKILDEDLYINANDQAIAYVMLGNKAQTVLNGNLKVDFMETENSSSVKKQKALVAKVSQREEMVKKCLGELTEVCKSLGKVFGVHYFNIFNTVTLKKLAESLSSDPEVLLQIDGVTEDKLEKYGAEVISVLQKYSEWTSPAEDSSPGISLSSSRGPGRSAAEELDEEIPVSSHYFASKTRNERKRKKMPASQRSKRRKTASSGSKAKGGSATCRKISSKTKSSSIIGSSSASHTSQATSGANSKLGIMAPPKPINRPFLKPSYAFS
T4 sequence (P54132 642-1290): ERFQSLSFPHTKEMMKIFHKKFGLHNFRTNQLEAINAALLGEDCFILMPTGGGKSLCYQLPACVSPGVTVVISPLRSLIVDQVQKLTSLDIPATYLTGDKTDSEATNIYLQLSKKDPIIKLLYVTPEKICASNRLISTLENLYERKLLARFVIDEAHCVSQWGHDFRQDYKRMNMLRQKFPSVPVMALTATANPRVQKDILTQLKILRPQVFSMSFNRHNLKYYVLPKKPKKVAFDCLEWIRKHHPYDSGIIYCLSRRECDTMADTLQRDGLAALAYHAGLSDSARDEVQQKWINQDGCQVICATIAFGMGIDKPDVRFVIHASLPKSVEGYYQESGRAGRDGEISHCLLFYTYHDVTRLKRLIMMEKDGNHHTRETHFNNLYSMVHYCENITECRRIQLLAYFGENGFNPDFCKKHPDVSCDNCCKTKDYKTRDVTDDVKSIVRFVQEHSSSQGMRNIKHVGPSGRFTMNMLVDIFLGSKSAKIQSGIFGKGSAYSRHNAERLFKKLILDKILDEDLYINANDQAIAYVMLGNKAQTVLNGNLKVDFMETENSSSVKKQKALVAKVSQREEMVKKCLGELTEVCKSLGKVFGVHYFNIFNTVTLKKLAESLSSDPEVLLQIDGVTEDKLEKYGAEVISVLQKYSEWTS
T3 sequence (P54132 642-1191): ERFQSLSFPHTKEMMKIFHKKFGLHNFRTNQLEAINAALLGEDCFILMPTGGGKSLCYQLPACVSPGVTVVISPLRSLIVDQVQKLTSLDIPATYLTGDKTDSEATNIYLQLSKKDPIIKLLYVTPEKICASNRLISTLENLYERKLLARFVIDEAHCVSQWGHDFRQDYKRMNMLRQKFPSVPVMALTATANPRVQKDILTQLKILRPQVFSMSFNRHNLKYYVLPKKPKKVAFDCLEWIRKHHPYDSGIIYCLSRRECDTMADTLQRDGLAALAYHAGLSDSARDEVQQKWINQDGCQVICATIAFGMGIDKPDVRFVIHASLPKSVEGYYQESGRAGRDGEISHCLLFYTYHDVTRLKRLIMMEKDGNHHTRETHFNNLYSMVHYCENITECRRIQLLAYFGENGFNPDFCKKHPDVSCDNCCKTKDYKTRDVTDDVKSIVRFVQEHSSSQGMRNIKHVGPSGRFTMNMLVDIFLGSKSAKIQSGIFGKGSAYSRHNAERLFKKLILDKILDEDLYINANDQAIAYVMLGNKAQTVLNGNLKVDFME
Sequence of TOPOIIIalpha (TRR complex);RMI1 (TRR complex);RMI2 (TRR complex) (Q13472 whole entry, chain 1 of 3): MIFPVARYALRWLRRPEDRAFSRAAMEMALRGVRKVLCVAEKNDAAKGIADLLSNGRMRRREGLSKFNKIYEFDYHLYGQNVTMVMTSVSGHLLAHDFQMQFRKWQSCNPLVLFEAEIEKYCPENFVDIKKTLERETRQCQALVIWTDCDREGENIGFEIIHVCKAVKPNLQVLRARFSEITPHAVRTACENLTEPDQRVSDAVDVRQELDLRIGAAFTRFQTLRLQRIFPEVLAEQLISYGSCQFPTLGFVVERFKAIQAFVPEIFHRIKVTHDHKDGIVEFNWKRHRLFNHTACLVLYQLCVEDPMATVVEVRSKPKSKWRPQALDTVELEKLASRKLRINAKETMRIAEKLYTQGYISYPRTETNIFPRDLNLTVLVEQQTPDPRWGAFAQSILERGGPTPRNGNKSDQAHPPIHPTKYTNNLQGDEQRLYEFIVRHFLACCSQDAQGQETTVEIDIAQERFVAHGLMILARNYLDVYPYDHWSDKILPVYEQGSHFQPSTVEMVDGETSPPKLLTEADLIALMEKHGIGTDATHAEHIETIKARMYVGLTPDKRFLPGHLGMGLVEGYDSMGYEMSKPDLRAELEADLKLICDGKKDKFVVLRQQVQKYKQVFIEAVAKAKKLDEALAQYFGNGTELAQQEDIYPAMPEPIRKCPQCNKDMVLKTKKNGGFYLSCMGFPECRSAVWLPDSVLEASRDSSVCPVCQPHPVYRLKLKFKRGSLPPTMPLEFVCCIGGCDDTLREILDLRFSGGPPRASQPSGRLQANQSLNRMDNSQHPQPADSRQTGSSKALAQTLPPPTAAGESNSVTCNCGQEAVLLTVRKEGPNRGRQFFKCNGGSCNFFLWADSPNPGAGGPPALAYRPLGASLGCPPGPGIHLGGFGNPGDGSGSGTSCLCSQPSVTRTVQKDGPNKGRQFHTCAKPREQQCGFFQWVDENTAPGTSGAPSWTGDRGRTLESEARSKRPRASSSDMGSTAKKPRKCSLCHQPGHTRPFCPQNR
Sequence of TOPOIIIalpha (TRR complex);RMI1 (TRR complex);RMI2 (TRR complex) (Q9H9A7 whole entry, chain 2 of 3): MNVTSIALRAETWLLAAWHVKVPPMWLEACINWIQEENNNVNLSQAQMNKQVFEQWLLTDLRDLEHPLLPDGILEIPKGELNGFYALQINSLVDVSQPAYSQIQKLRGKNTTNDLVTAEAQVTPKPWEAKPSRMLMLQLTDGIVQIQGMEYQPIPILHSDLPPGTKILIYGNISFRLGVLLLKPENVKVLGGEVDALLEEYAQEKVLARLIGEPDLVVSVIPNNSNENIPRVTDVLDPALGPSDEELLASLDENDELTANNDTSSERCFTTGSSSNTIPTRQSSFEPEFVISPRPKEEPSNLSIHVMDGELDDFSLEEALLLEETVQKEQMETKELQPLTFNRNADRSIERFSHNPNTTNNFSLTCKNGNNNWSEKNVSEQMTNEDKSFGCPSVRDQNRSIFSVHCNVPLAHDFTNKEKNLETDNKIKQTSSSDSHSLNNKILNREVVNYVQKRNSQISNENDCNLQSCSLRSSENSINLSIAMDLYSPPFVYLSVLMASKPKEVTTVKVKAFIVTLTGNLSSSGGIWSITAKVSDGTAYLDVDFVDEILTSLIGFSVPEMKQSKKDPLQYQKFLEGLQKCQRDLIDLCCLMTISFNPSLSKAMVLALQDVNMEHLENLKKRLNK
Sequence of TOPOIIIalpha (TRR complex);RMI1 (TRR complex);RMI2 (TRR complex) (Q96E14 whole entry, chain 3 of 3): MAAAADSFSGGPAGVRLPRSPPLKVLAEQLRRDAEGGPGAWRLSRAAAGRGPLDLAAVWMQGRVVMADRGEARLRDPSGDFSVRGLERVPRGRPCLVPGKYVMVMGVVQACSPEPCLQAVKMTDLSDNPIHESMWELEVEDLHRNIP

B1: ss54-FLU (ssDNA)
DNA: TCCTTTTGATAAGAGGTCATTTTTGCGGATGGCTTAGAGCTTAATTGCGCAACG
B1: the Kd – broadly, the concentration at which binding is half-saturated – with BLMFL [1] stood at 61 ± 10 nM; with BLM-dWH [2], 520 ± 30 nM; with BLM-dH [3] it was 61 ± 16 nM; with BLMCR [4], 74 ± 14 nM.

B2: DL3 (Cy3) (structured_DNA)
DNA 1: GACGCTGCCGAATTCTACCAGTGCCTTGCTAGGACATCTTTGCCCACCTGCAGGTTCACCC
DNA 2: GGGTGAACCTGCAGGTGGGCGGCTGCTCATCGTAGGTTAGTTGGTAGAATTCGGCAGCGTC
DNA 3: TAAGAGCAAGATGTTCTATAAAAGATGTCCTAGCAAGGCAC
B2: the Kd with BLMFL [5] (setting [10]) is 1.2 ± 0.8 nM; with BLM-dWH [6] (setting [10]), 56 ± 7 nM; in the data set with BLM-dH [7] (setting [10]), under 1 nM; in the data set with BLMCR [8] (setting [10]), under 1 nM.

B3: DL4 (Cy3) (structured_DNA)
DNA 1: GACGCTGCCGAATTCTACCAGTGCCTTGCTAGGACATCTTTGCCCACCTGCAGGTTCACCC
DNA 2: GGGTGAACCTGCAGGTGGGCGGCTGCTCATCGTAGGTTAGTTGGTAGAATTCGGCAGCGTC
DNA 3: TAAGAGCAAGATGTTCTATAAAAGATGTCCTAGCAAGGCAC
DNA 4: TATAGAACATCTTGCTCTTA
Turning to B3, the equilibrium dissociation constant (Kd) with BLMFL [5] (setting [11]) is 2.3 ± 1.3 nM; in the data set with BLM-dWH [6] (setting [11]) it was 56 ± 13 nM; with BLM-dH [7] (setting [11]), under 1 nM; with BLMCR [8] (setting [11]), under 1 nM.

B4: DL4 (fluorescein) (structured_DNA)
DNA 1: GACGCTGCCGAATTCTACCAGTGCCTTGCTAGGACATCTTTGCCCACCTGCAGGTTCACCC
DNA 2: GGGTGAACCTGCAGGTGGGCGGCTGCTCATCGTAGGTTAGTTGGTAGAATTCGGCAGCGTC
DNA 3: TAAGAGCAAGATGTTCTATAAAAGATGTCCTAGCAAGGCAC
DNA 4: TATAGAACATCTTGCTCTTA
As for B4, the Kd in [9] (four-stranded D-loop-like structure (D1+D2+D3+D4)) came out at 488 ± 70 nM.

B5: 3T (Cy3) (dsDNA)
DNA 1: TAAGAGCAAGATGTTCTATAAAAGATGTCCTAGCAAGGCAC
DNA 2: TATAGAACATCTTGCTCTTA
Consider B5, for which the Kd with BLMFL [5] (setting [12]) stood at 10 ± 3 nM; in the data set with BLM-dWH [6] (setting [12]), 430 ± 70 nM; with BLM-dH [7] (setting [12]) it was 39 ± 3 nM; with BLMCR [8] (setting [12]) it was 24 ± 2 nM.

B6: DL3 (fluorescein) (structured_DNA)
DNA 1: GACGCTGCCGAATTCTACCAGTGCCTTGCTAGGACATCTTTGCCCACCTGCAGGTTCACCC
DNA 2: GGGTGAACCTGCAGGTGGGCGGCTGCTCATCGTAGGTTAGTTGGTAGAATTCGGCAGCGTC
DNA 3: TAAGAGCAAGATGTTCTATAAAAGATGTCCTAGCAAGGCAC
As to B6, the equilibrium dissociation constant (Kd) in data set [9] (three-stranded D-loop-like structure (D1+D2+D3)) came out at 13 ± 1 nM.
